Non-standard residues stand in square brackets, D forms with d. Phe(4-N3) = [N-]=[N+]=Nc1ccc(C[C@H](N)C(=O)O)cc1

The values that follow come from patent US20230093708A1, “PROTEIN NANOPARTICLE DESIGN AND APPLICATION” (Duke University, priority 2020, published 2023).

Data set [1] is described as follows: DLS of native and crosslinked pAzF diblock constructs in PBS and GuHCl. The format is physicochemical. An excerpt:
We wanted to thoroughly investigate the effects of pAzF-introduction as well as nanoparticle crosslinking on nanoparticle self-assembly. For this, we started by characterizing solely our five different ELP/RLP diblock architectures without any C-terminal functionalization. After expression and purification of the diblock constructs using ITC, the pAzF-containing constructs were crosslinked in solution by exposure to UV irradiation and characterized using dynamic light scattering (DLS). […] Generally, both processes seem to have increased the measured radii with this effect being more pronounced for the worm-forming constructs.
Apart from changes in nanoparticle morphology we were particularly interested in the effect pAzF-crosslinking had on their stability. […] GuHCl is a well-known denaturing agent that disrupts any inter- and intramolecular electrostatic forces and completely breaks down the quaternary, tertiary and secondary structure of most known proteins. Covalent bonds—such as the ones formed by pAzF-crosslinking—however remain unaffected by GuHCl, thus, the addition of this denaturing agent was expected to give us insights on the stability of our crosslinked nanoparticles. […] All native samples on the other hand resorted to complete unimerization upon exposure to GuHCl. As the Rh values for the crosslinked particles in GuHCl were generally larger than in PBS, the DLS data furthermore indicates a swelling behavior in the presence of the denaturing agent. This can most probably be attributed to the RLP core which is assumed to be completely collapsed in PBS but will however try to reach an elongated, random-coil morphology in the presence of GuHCl.
The first step of the characterization process was to produce crosslinked particles for the functionalized diblock constructs and to analyze whether the attachment of the ligands had caused any significant changes in particle size. […] Whatever the reason was, it had no effect on the crosslinking process as the particles still remained stable after GuHCl exposure.
Dynamic light scattering of cross-linkable protein nanoparticles was performed. […] However, these crosslinked particles remain assembled, actually growing slightly in size due to chain swelling of the core and corona in this new buffer. These novel scaffolds support various targeting domains and assemble into nearly identically sized nanoparticles between […] in hydrodynamic radius.

Data set [2] can be described thus: Critical assembly concentration (CAC) by DLS dilution series. It is filed as physicochemical. The method, then: Lastly, we also wanted to determine the critical assembly concentration (CAC) of the individual constructs. The Rh values were measured with DLS over a dilution series from the mid-micromolar down to the low nanomolar range. […] Curiously, the mere introduction of crosslinking sites seems to dramatically decrease the CAC. Generally, the worm-forming constructs had lower CACs than their spherical analogues and so do pAzF-containing constructs in comparison to analogous pAzF-free polypeptides.

B1: UAA4-80: pAzF-containing worm-forming diblock construct (protein)
chain: QYPSDGRGQYPSDGRGQYPSDGRGQYPSDGRG[Phe(4-N3)]QYPSDGRGQYPSDGRGQYPSDGRGQYPSDGRG[Phe(4-N3)]QYPSDGRGQYPSDGRGQYPSDGRGQYPSDGRG[Phe(4-N3)]QYPSDGRGQYPSDGRGQYPSDGRGQYPSDGRG[Phe(4-N3)]QYPSDGRGQYPSDGRGQYPSDGRGQYPSDGRG[Phe(4-N3)]
For B1, the “RH (nm)” value in data set [1] (15 μm in 7.2M GuHCl, crosslinked) is reported as 138.1 ± 12.5 nm; in data set [1] (15 μm in 7.2M GuHCl, native (not crosslinked)), 7.4 ± 1.9 nm; in data set [1] (15 μm in PBS, crosslinked), 86.2 ± 4.5 nm; in data set [1] (15 μm in PBS, native (not crosslinked)), 55.7 ± 2.3 nm. In data set [2], this molecule yielded a CAC of 30 to 50 nM.
